Experimental data as given in US20250207095A1.

Target: 4-1BB (UniProt Q07011)
Test: cell-based or functional assay

4-1BB, sequence (Q07011 24-255 limits assumed): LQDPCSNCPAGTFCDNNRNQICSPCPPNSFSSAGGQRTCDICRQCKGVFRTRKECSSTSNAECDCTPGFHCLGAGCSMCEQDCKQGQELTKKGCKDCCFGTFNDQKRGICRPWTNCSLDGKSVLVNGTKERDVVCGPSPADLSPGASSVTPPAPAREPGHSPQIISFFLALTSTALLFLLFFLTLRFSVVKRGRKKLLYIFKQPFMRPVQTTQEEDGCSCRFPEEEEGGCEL

**Q.** For “4-1BB ligand (from UniProt P41273 1-254)”, which expansion of TRAC-1XX-iT cells from D35 to D42 is on record?
**A.** 30 fold
